Molecular target: BG505 EnvΔCT trimer (cleaved, membrane-derived) (HIV-1 isolate BG505 (clade A))
Experiment: single particle EM reconstruction

With PGT151 Fab the stoichiometry N (Fabs per trimer) was 2.

Source: PMC4057017
